Residue numbers refer to the chain shown, from its start.
Tests used:
Test in all cases: SPR, antibody captured, C2 as analyte;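 also: biacore at 37 °C, anti-C2 mAbs held by immobilised goat anti-human IgG, C2 alanine or serine mutants injected, double-referenced sensorgrams fitted to a 1:1 kinetic or steady-state model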
human C2 R519A = molecular target: T1, human C2 R519A (human, UniProt P06681 21-752)
T1 sequence: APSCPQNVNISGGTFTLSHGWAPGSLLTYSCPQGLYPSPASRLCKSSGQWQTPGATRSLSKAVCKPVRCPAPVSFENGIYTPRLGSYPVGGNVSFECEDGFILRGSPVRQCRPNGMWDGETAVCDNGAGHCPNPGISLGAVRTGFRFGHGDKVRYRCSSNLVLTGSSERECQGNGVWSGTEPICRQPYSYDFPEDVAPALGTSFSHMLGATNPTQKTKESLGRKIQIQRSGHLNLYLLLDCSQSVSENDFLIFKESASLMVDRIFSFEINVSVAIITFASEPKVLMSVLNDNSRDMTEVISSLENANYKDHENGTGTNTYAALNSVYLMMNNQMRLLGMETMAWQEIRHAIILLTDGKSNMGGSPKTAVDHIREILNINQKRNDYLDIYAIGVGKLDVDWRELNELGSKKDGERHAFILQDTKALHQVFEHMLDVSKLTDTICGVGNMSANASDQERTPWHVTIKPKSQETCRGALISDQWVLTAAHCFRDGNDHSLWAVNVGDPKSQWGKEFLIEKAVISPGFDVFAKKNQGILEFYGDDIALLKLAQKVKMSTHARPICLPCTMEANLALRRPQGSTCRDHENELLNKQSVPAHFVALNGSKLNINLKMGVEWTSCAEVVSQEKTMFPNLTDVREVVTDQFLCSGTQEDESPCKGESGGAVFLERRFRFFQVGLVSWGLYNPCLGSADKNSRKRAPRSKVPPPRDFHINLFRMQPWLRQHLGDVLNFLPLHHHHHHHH

human C2 D419A = molecular target: T2, human C2 D419A (human, UniProt P06681 21-752)
T2 sequence: T1 sequence with D399A, A499R

human C2 R688A = molecular target: T3, human C2 R688A (human, UniProt P06681 21-752)
T3 sequence: T1 sequence with A499R, R668A

human C2 S456A = molecular target: T4, human C2 S456A (human, UniProt P06681 21-752)
T4 sequence: T1 sequence with S436A, A499R

B1: RF16-242 (antibody, human IgG4 S228P, lambda, V domains shown)
VH: EVQLLQSGAEVKKPGESLKISCKGSGYSFTSYWIGWVRQMPGKGLEWMGIIYPGDSDTRYSPSFQGQVTISADKSISTAYLQWSSLKASDTAMYYCARRGHYGDYFDYWGQGTLVTVSS
VL: SYELTQPPSVSVSPGQTARITCSGDALPKKYAYWYHQKSGQAPVLVIYEDRRRPSEIPERFSGSSSGTMATLTITGAQVEDEGVYFCYSRDRAGNQRVFGGGTQLTVLG
notes: pH-dependent anti-C2 antibody from a phage display library
**Q.** Which Kd (human C2 R519A) does the source give for B1 here?
**A.** 7.6 nM

**Q.** What about the Kd (human C2 D419A) of the same binder?
**A.** 10.5 nM

**Q.** What about the Kd (human C2 R688A) of the same binder?
**A.** 17.3 nM

**Q.** What about the Kd (human C2 S456A) of the same binder?
**A.** 59.8 nM

Source: patent publication US20220332804A1 (CSL INNOVATION, published 2022)
